Data set [1] is described as follows: Solubility of SMG in release medium. The data set is classed as physicochemical.
Data set [2] can be described thus: Octanol–water partition coefficient (logP), shake-flask method. The conditions noted are these: mutually saturated n-octanol/distilled water, 10 mg freeze-dried complex in 10 mL of each phase, stirred 400 rpm 24 h, 25 °C, HPLC-UV 230 nm, SMG 5.36 mg/mL, in the presence of Zn 0.5 mg/mL (Figure 2a), mean, n = 3. The data set is classed as physicochemical. How it is done: The prepared SMG–PS–Zn complex suspensions were stored at −80 °C for 24 h, then freeze-dried using a lyophilizer (TFD 8501, Ilshinbiobase Co. Ltd., Dongducheon-si, Republic of Korea) at −80 °C and under a vacuum of <10 mTorr for 24 h to obtain dried samples. Then, the octanol–water partition coefficient (logP) was determined using the classical shake-flask method. Equal volumes of n-octanol and distilled water were mutually saturated by vigorous mixing and phase separation. Ten milligrams of freeze-dried complexes were placed in a 20 mL scintillation vial, followed by the addition of 10 mL each of the pre-saturated octanol and water phases. The vial was sealed and stirred at 400 rpm for 24 h to reach equilibrium. After incubation, the mixture was centrifuged at 13,000 rpm to separate the phases. The octanol phase was diluted 10-fold with methanol, and the aqueous phase was diluted 10-fold with the mobile phase. Drug concentrations in both phases were quantified using high-performance liquid chromatography (HPLC) analysis, and logP was calculated as the logarithm of the ratio of drug concentration in octanol to that in water.
The concentration of SMG in the complex suspension was quantified by reversed phase-HPLC, with minor modifications to previously reported methods. […] The limits of detection and quantification were 0.523 μg/mL and 1.569 μg/mL, respectively.

For data set [3] the following is noted: healthy subjects, SC injection; cited from earlier work. From the text: SMG is a 31-amino acid peptide with a molecular weight of 4113.58 Da, structurally derived from native GLP-1 by substitutions at positions 8 (alanine to α-aminoisobutyric acid) and 34 (lysine to arginine), and acylation of the lysine residue at position 26 with a C18 fatty diacid chain. These modifications enhance albu ...

Take Semaglutide [SMG]: the “Solubility in PBS (pH 7.4) release medium” value in data set [1] was found to be 26.8 mg/mL. Further, the “logP (octanol/distilled water)” value in data set [2] was “approximately −4.7”. In addition, the Elimination half-life result in data set [3] is recorded as “approximately 7 days”.

The values above are taken from PMC12472674 (Nanomaterials, 2025).
